Residue numbers refer to the chain shown, from its start. Names and notes keep the numbering of the source.
T1: EsCas13d, nuclease-dead (Eubacterium siraeum, UniProt B0MS50, R295A;H300A;R849A;H854A)
T1 sequence: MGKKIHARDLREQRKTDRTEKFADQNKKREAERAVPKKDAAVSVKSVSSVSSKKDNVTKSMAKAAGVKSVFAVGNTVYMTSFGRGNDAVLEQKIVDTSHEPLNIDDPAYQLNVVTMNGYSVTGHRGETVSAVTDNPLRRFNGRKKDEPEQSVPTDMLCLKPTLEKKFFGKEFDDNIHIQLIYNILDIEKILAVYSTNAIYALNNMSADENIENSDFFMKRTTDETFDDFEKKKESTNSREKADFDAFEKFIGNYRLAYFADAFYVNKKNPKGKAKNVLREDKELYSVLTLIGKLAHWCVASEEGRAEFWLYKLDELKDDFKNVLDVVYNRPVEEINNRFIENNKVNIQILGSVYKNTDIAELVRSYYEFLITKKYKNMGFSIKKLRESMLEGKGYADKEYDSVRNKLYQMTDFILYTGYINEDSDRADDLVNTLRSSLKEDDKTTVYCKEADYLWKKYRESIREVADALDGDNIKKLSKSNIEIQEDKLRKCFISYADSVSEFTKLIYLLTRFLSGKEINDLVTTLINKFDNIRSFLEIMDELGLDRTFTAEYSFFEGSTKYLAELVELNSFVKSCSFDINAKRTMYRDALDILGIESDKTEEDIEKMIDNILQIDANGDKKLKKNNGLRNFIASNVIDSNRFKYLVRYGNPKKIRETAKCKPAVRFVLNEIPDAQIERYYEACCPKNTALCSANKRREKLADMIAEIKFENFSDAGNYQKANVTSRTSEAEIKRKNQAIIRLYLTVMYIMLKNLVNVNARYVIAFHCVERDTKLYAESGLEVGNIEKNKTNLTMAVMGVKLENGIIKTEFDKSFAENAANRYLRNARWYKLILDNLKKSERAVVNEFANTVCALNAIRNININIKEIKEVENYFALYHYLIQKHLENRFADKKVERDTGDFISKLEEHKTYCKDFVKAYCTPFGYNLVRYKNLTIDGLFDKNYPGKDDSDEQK

B1: target 1 U3C,U8A (mixed)
RNA 1: CACCCGUGCAAAAAUGCAGGGGUCUAAAACUGAGCGGAUAACCUCUCUAUGG
RNA 2: GGGAAUGGAUCCACAUCUACGAAUUCGUACCAUAGAGAGGUUAACCGCCCACCGAGAUCGGAAGAGCACACGU
B2: target 1 C4G,U11G (mixed)
RNA 1: B1 RNA 1
RNA 2: B1 RNA 2 with U41G, A44U, C48G, C49U
B3: target 1 C6A,A16C (mixed)
RNA 1: B1 RNA 1
RNA 2: B1 RNA 2 with A36C, A44U, C46A, C49U
B4: target 1 insA 3' of 8,insA 3' of 5 (mixed)
RNA 1: B1 RNA 1
RNA 2: GGGAAUGGAUCCACAUCUACGAAUUCGUACCAUAGAGAGGUUAUACCGACUCACCGAGAUCGGAAGAGCACACGU
B5: target 1 insA 3' of 22,insU 3' of 14 (mixed)
RNA 1: B1 RNA 1
RNA 2: GGGAAUGGAUCCACAUCUACGAAUUCGUACACAUAGAGAUGGUUAUCCGCUCACCGAGAUCGGAAGAGCACACGU
B6: target 1 G5C,U10G (mixed)
RNA 1: B1 RNA 1
RNA 2: B1 RNA 2 with U42G, A44U, G47C, C49U
B7: target 1 insC 3' of 19,insU 3' of 4 (mixed)
RNA 1: B1 RNA 1
RNA 2: GGGAAUGGAUCCACAUCUACGAAUUCGUACCAUCAGAGAGGUUAUCCGCUUCACCGAGAUCGGAAGAGCACACGU
B8: target 1 insU 3' of 13,insG 3' of 11 (mixed)
RNA 1: B1 RNA 1
RNA 2: B4 RNA 2 with G40U, U41G, A43G, C46U, G48C, A49G
B9: target 1 insG 3' of 21,insG 3' of 7 (mixed)
RNA 1: B1 RNA 1
RNA 2: B7 RNA 2 with A32G, U33A, C34U, C47G, G48C, C49G, U50C
B10: target 1 A18U,A20U (mixed)
RNA 1: B1 RNA 1
RNA 2: B1 RNA 2 with A32U, A34U, A44U, C49U
B11: target 1 C7U,A20C (mixed)
RNA 1: B1 RNA 1
RNA 2: B1 RNA 2 with A32C, A44U, C45U, C49U
B12: target 1 insU 3' of 21,insG 3' of 7 (mixed)
RNA 1: B1 RNA 1
RNA 2: B7 RNA 2 with A32U, U33A, C34U, C47G, G48C, C49G, U50C
B13: target 1 insU 3' of 17,insU 3' of 4 (mixed)
RNA 1: B1 RNA 1
RNA 2: B7 RNA 2 with C34A, A35G, G36U
B14: target 1 insA 3' of 17,insG 3' of 9 (mixed)
RNA 1: B1 RNA 1
RNA 2: B7 RNA 2 with C34A, A35G, G36A, U45G, C46U, G48C, C49G, U50C
B15: target 1 C2G,A20C (mixed)
RNA 1: B1 RNA 1
RNA 2: B1 RNA 2 with A32C, A44U, C49U, C50G
B16: target 1 complement block 5-7 (mixed)
RNA 1: B1 RNA 1
RNA 2: B1 RNA 2 with A44U, C45G, C46G, G47C, C49U
B17: target 1 insC 3' of 9,insG 3' of 9 (mixed)
RNA 1: B1 RNA 1
RNA 2: B4 RNA 2 with U44C, A45G, C46U, G48C, A49G
B18: target 1 insA 3' of 19,insG 3' of 7 (mixed)
RNA 1: B1 RNA 1
RNA 2: B7 RNA 2 with C34A, C47G, G48C, C49G, U50C
B19: target 1 C4G,A14C (mixed)
RNA 1: B1 RNA 1
RNA 2: B1 RNA 2 with A38C, A44U, C48G, C49U
B20: target 1 U11A,G17C (mixed)
RNA 1: B1 RNA 1
RNA 2: B1 RNA 2 with G35C, U41A, A44U, C49U
B21: target 1 insU 3' of 4,insG 3' of 2 (mixed)
RNA 1: B1 RNA 1
RNA 2: B4 RNA 2 with A45C, C47G, G48C, A49U, C50U, U51C, C52G
B22: target 1 G5C,G12C (mixed)
RNA 1: B1 RNA 1
RNA 2: B1 RNA 2 with G40C, A44U, G47C, C49U
B23: target 1 U19G,C21A (mixed)
RNA 1: B1 RNA 1
RNA 2: B1 RNA 2 with C31A, U33G, A44U, C49U
B24: target 1 C2U,G13C (mixed)
RNA 1: B1 RNA 1
RNA 2: B1 RNA 2 with G39C, A44U, C49U, C50U
B25: target 1 insC 3' of 12,insG 3' of 7 (mixed)
RNA 1: B1 RNA 1
RNA 2: B4 RNA 2 with U41C, A43U, U44A, A45U, C47G, G48C, A49G
B26: target 1 insU 3' of 14,insU 3' of 14 (mixed)
RNA 1: B1 RNA 1
RNA 2: B4 RNA 2 with G39U, G40U, U41G, U42G, A43U, C46U, G48C, A49G
B27: target 1 insU 3' of 13,insG 3' of 9 (mixed)
RNA 1: B1 RNA 1
RNA 2: B4 RNA 2 with G40U, U41G, A43U, U44A, A45G, C46U, G48C, A49G
B28: target 1 G12U,C21A (mixed)
RNA 1: B1 RNA 1
RNA 2: B1 RNA 2 with C31A, G40U, A44U, C49U
B29: target 1 C2U,G17A (mixed)
RNA 1: B1 RNA 1
RNA 2: B1 RNA 2 with G35A, A44U, C49U, C50U
B30: target 1 insA 3' of 17,insU 3' of 12 (mixed)
RNA 1: B1 RNA 1
RNA 2: B5 RNA 2 with A31C, C32A, A33U, U34A, A35G, G36A, U40G, G42U
B31: target 1 del7,del15 (mixed)
RNA 1: B1 RNA 1
RNA 2: GGGAAUGGAUCCACAUCUACGAAUUCGUACCAUAGAAGGUUAUCGCUCACCGAGAUCGGAAGAGCACACGU
B32: target 1 G5A,U10C (mixed)
RNA 1: B1 RNA 1
RNA 2: B1 RNA 2 with U42C, A44U, G47A, C49U
B33: target 1 A9G,G15C (mixed)
RNA 1: B1 RNA 1
RNA 2: B1 RNA 2 with G37C, A43G, A44U, C49U
B34: target 1 insC 3' of 17,insU 3' of 15 (mixed)
RNA 1: B1 RNA 1
RNA 2: B5 RNA 2 with A31C, C32A, A33U, U34A, A35G, G36C, A39U, U40A

Target: T1, EsCas13d, nuclease-dead
Test: crRNA (strand 1, pre-loaded); Mg2+; 40 mM Tris-HCl pH 7.5, 150 mM NaCl, 6 mM MgCl2, 1 mM DTT, 0.1% Tween-20, 0.2 mg/ml BSA; 25 C; 10 min per concentration, then washed
Settings: tags: His6-TwinStrep-SUMO cleaved; N-terminal SNAP kept (SNAP-Surface 488); label: 3' end held by stalled T7 RNA polymerase

| Binder | Kd |
| --- | --- |
| B1 | 18.7 ± 1.5 nM |
| B2 | 5.73 ± 0.29 nM |
| B3 | 35.4 ± 2.2 nM |
| B4 | 18.8 ± 1.5 nM |
| B5 | 41 ± 20 nM |
| B6 | 17.5 ± 0.9 nM |
| B7 | 32.2 ± 3.2 nM |
| B8 | 39 ± 8 nM |
| B9 | 68 ± 5 nM |
| B10 | 95 ± 17 nM |
| B11 | 37 ± 8 nM |
| B12 | 23.6 ± 2 nM |
| B13 | 19.2 ± 2.1 nM |
| B14 | 22.2 ± 2.5 nM |
| B15 | 21.8 ± 1.1 nM |
| B16 | 32.9 ± 1.5 nM |
| B17 | 18.5 ± 1.2 nM |

| Binder | Kd |
| --- | --- |
| B18 | 16.3 ± 1.4 nM |
| B19 | 14.1 ± 2.8 nM |
| B20 | ~70 nM |
| B21 | 7.4 ± 0.5 nM |
| B22 | 30.4 ± 1.8 nM |
| B23 | 56 ± 7 nM |
| B24 | 44 ± 7 nM |
| B25 | 16.2 ± 0.9 nM |
| B26 | 21 ± 1.3 nM |
| B27 | 24.8 ± 3.2 nM |
| B28 | 27.4 ± 2.3 nM |
| B29 | 34.4 ± 2.7 nM |
| B30 | 10.4 ± 0.6 nM |
| B31 | 17.3 ± 0.7 nM |
| B32 | 47 ± 5 nM |
| B33 | 67 ± 20 nM |
| B34 | 19.1 ± 1 nM |

— publication PMC10786891, “Massively parallel profiling of RNA-targeting CRISPR-Cas13d”
